Measurements reported in PMC2654124 (The Journal of Cell Biology, 2009).

Molecular target: the molecule itself
Test: native gel or EMSA

B1: Ugo1 (natural protein)
chain: MNNNNVTEATSRAQIRPYYDPDSFNAGYSAVFKPDEGVVDPHGYTIASKLNVINSSPTTKRMANALFKSSPMKKLSNSVNDGLSLEGSNGEITGLNNFEWAELVNIQKWRKIFEQLLDMFFRKYFQLLIQQPFDVARLLIQVGEFKIFKTTVDTNKPQAPIILRDEEGDGAAREGEEDAYDEEEIDFFPIERKIAEANSTAPIMAEETDHSHHEPTDISLTIAPQSLHTIDVINALFDQEGIRGLWKANNTTFIYNFLSLSIDTWFTGLLSSFLGVPDPYFMEVINSPDISKSFILALGAGVFTSIILLPVDLIRTRLIVTSFKKKKNVKTDGKNMVTNTRSLRQLIRCWSWRKNGVSIPLDMWSLTILQSINNSFFNKLFDLVIYNQFHIEKYSQTVMYNTMKFFSKSLELFIKLPLENLLRRCQLNYLLNDQRLSFKVDSTELIVKPKKYNGIWDVIRNNSNTNRGQLWNGWKVGVISLICGYGLQMMNKVDINMEQEKF
Q: With B1 as the protein, how does the “stoichiometry N” value read?
A: Its value is 2.
